Results: patent publication US20250042957A1

Assays:
TargetA [1] = experiment: ELISA on TargetA, DARPin titrated
TargetA [2] = experiment: SPR, bio-TargetA coated on NAD chip, DARPin 333.33-4.11 nM

Row | Binder | EC50 (read off the curve) (TargetA [1]) [nM] | Kd (TargetA [2]) [nM]
1 | 2-in-1 DARPin 25 (SEQ ID NO: 94) (designed binder) DLGKKLLQAARAGQLDEVRELLKAGADVNAKDSQGRTPLHLAAFAGHLEIVEVLLKAGADVNAKDHAGWTPLHLAAYAGHLEIVEVLVKAGADVNAKDTEGKTPLHIAAWFGHLEIVEVLLKAGADVNAKDKSGKTPLHLAARAGHLEIVEVLLKAGADVNAKDNSGQTPLHLAAWAGHLEIVEVLLKAGADVNAKNSRGWTPLHTAAQTGHLEIFEVLLKAGADVNAKNDKRVTPLHLAAALGHLEIVEVLLKAGADVNARDSWGTTPADLAAKYGHQDIAEVLQKAA | 0.7 | 0.018
2 | 2-in-1 DARPin 23 (SEQ ID NO: 92) (designed binder) DLGKKLLQAARAGQLDEVRELLKAGADVNAKDSQGRTPLHLAAFAGHLEIVEVLLKAGADVNAKDHAGWTPLHLAAYAGHLEIVEVLVKAGADVNAKDTEGKTPLHIAAWFGHLEIVEVLLKAGADVNAKDKSGQTPLHLAAWAGHLEIVEVLLKAGADVNAKNSRGWTPLHTAAQTGHLEIFEVLLKAGADVNAKNDKRVTPLHLAAALGHLEIVEVLLKAGADVNARDSWGTTPADLAAKYGHQDIAEVLQKAA | 1 | 0.024

The remaining binders from weak to strong by Kd (TargetA [2]), led by results:

Row | EC50 (read off the curve) (TargetA [1]) [nM] | Kd (TargetA [2]) [nM] | Binder
3 |  | 0.16 | Parent DARPin no 4 (SEQ ID NO: 88) (designed binder) DLGKKLLQAARAGQLDEVRELLKAGADVNAKDSQGRTPLHLAAFAGHLEIVEVLLKAGADVNAKDHAGWTPLHLAAYAGHLEIVEVLVKAGADVNAKDTEGKTPLHIAAWFGHLEIVEVLLKAGADVNAQDKSGKTPADLTARAGHQDIAEVLQKAA
4 | 0.8 | 0.119 | 2-in-1 DARPin 24 (SEQ ID NO: 93) (designed binder) DLGKKLLQAARAGQLDEVRELLKAGADVNAKDSQGRTPLHLAAFAGHLEIVEVLLKAGADVNAKDHAGWTPLHLAAYAGHLEIVEVLVKAGADVNAKDTEGKTPLHIAAWFGHLEIVEVLLKAGADVNAKDKSGKTPLHLAARAGHLEIVEVLLKAGADVNAKDNSGQTPLHEAAWAGHLEIVEVLLKAGADVNAKNSRGWTPLHTAAQTGHLEIFEVLLKAGADVNAKNDKRVTPLHLAAALGHLEIVEVLLKAGADVNARDSWGTTPADLAAKYGHQDIAEVLQKAA
